Test results: the supplement of paper PMC9170038

Test system: MS2 coat protein
Assay: apparent KD of MS2 coat protein; designed switch direction (-1 OFF switch, 1 ON switch): -1; higher = weaker reporter binding
Outline: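 RNA switches sharing common flanks were transcribed by stalled E. coli RNA polymerase on Illumina chips. A doubling series of SNAP-549-labelled MS2 coat protein, from 0.7 or 1.5 nM to 3 µM, was applied in Tris-HCl pH 7.5 buffer with KCl, MgCl2, BSA, DTT, tRNA and Tween-20. Each step lasted 0.8–1.5 h at the bottom of the series and 10–20 min at the top. Normalised cluster fluorescence was curve-fitted, giving apparent KD as the per-design median over clusters.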

[1] = Eterna round: R95, input ligand: FMN 200 uM
[2] = Eterna round: R95, input ligand: microRNA oligo, concentration not stated
[3] = Eterna round: R95, input ligand: none
[4] = input ligand: microRNA oligo, concentration not stated

| Sequence | apparent KD of MS2 coat protein [2] [µM] | apparent KD of MS2 coat protein (input ligand: FMN 200 uM) [µM] | apparent KD of MS2 coat protein (input ligand: none) [µM] | other results |
| --- | --- | --- | --- | --- |
| AAAUAACAAGCGAGAUCCUACAUGAGGAUCACCCAUGUGCUCGUCUUAAUAAGUACUAUCACGAAAGUGAUAGUACA [Mat - Sensor v3 - turn-off var 1 - Eli Mod - D67] (puzzle: Sensor v3, turn-off variant 1) | 0.471 | – | – | apparent KD of MS2 coat protein [1]: 0.0166 µM; apparent KD of MS2 coat protein [3]: 0.016 µM |
| GAUUAAUUAAUUAAUUAAUACAUGAGGAUCACCCAUGUAAUUUAAGAUCCUUAUACAAGCUUUGAUCUCGUAAUUAA [Stov1/4-A3] (Eterna round: R97, puzzle: Sensor, turn-off variant 1) | – | 0.12 | 0.12 | – |
| CUGAAAGACGAAGGAUAUCCAGGCACCGGAGUAGGAGAAGGUCGUCCGGGUGUCCUAGAACUUGAGGAUCACCCAAGUAGAAGA [Mutated MS2 EX1.5] (Eterna round: R96, puzzle: Exclusion NG 1) | – | 0.0344 | 0.0247 | apparent KD of MS2 coat protein [4]: 0.0369 µM |
| UCUUUCAUUGUGAGGAUAUGCCCAAAUAAAAGCGGGCAGAAGGCACAUGAGGAUCACCCAUGUCCUGCGGUUUU [salish99_bmx4_r4_149] (Eterna round: R97, puzzle: Brourd's mod of Exclusion 4) | – | 0.177 | 0.0407 | – |
| UUUGUCUGUGUGAGGAUAUACUUUGUUUGGUCGUUGUAGAAGGCACAUGAGGAUCACCCAUGUAUUUUGUUGUG [JR_BME4_Sub015] (puzzle: Brourd's mod of Exclusion 4) | 0.0269 | – | – | – |
| GAUCCACAUGAGGAUCACCCAUGUCAGGAUAUGAUACUAUGUACUUCGGUACAUAGUAUCAGAAGGGACAGAUC [Ex1-3: 2] (puzzle: Exclusion 1) | 0.162 | – | – | – |
| CUUUUGUGAGGAUAUCAGGUGUGCUAGCGUACUGGUACAUCUGAGAAGGCACAUGAGGAUCACCCAUGUUUCUA [Mat - Exclusion 4 - Mod of JL - D38] (puzzle: Exclusion 4) | 0.064 | – | – | – |
| UGUGUGAGACAGGAUAUGCCGGAUGAAAUGCAGGUAGAAGGGUCUACAUGAGGAUCACCCAUGUGGCCGGUUGG [Ex6 #75] (Eterna round: R97, puzzle: Exclusion 6) | – | 0.0189 | 0.0151 | – |
| CAGUACUGAGGAUAUACAUGAGGAUCACCCAUGUGUCUAAGGUAGGAUACUACCAUUAGUAGAAGGCAGUACUG [Fiskers Ex 3 828 mod 19] (puzzle: Exclusion 3) | 0.0132 | – | – | – |
| AAUAACAGAGGAUAUACUAUUUUAUGUGUUUGUUAUUUUAAACAUGAGGAUCACCCAUGUAGAAGGCUGAAUGA [JMF 56] (puzzle: Exclusion 2) | 0.025 | – | – | – |
| CUGGUGUGAGGAUAUCAGGACACGCCCGAGGGCGUGUCAAAUGAGAAGGCACAUGAGGAUCACCCAUGUGGGAC [Atisrage] (puzzle: Exclusion 4) | 0.0398 | – | – | – |
| AAGUACCGUCACGAUAGUGAUGGUACAACAAGCAUGUAAACAUGAGGAUCACCCAUGUCCUCAAUUGCUCGUCUUAU [Sensor 3 - 68] (Eterna round: R96, puzzle: Sensor v3, turn-off variant 2) | – | 0.956 | 1.06 | apparent KD of MS2 coat protein [4]: 0.809 µM |
| UGCAUGGUAGGAUAUACGGAGCAUUAGGGUUUGUUAUGUGGACAUGAGGAUCACCCAUGUAGAAGGGCCGUGCU [JL-ex2-2.16 mat747 mod] (puzzle: Exclusion 2) | 0.0326 | – | – | – |
| ACAAGCAGAGAGUAAAUGGACAUGAGGAUCACCCAUGUGAGUCCGAAGAGAUAAGAUAUAUUGUCGGCUCGUCUUAU [AK-miRNA-r3-21] (Eterna round: R97, puzzle: Sensor, turn-off variant 1) | – | 0.105 | 0.105 | – |
| ACCUCACAUGAGGAUCACCCAUGUAAGGAUAUCUUCGCUUUGACGUUGCUCUAUGCGAAGAGAAGGUACACGGA [Xeteed] (Eterna round: R97, puzzle: Exclusion 1) | – | 0.0848 | 0.0206 | – |
| ACAUGAGGAUCACCCAUGUCCGGUUGGUCUGUUCCGGCUGUCGAGGAUAUAGUCCGGUGUUCGCGCUAGAAGGUGAGGGCUGGA [Aenatbe mod 46] (Eterna round: R96, puzzle: Exclusion NG 3) | – | 0.775 | 0.5 | apparent KD of MS2 coat protein [4]: 0.259 µM |
| AAUAACAAGUAAGAUCCUAACAUGAGGAUCACCCAUGUGCUCGUCUUAUAAAGUACUAUCACGAAAGUGAUAGUACA [Sensor 3, v1 - 46] (puzzle: Sensor v3, turn-off variant 1) | 0.153 | – | – | apparent KD of MS2 coat protein [1]: 0.0365 µM; apparent KD of MS2 coat protein [3]: 0.0431 µM |
| UUUUUUUUUGUGAGGAUAUACUUUUUUUUUUUUUUGUAGAAGGCACAUGAGGAUCACCCAUGUUUUUUUUUCUC [JR_BME4_Sub029] (puzzle: Brourd's mod of Exclusion 4) | 0.0132 | – | – | – |

| Sequence | apparent KD of MS2 coat protein [2] [µM] | apparent KD of MS2 coat protein (input ligand: FMN 200 uM) [µM] | apparent KD of MS2 coat protein (input ligand: none) [µM] | other results |
| --- | --- | --- | --- | --- |
| UCCCGAUACUAGGAUAUGAGUUCACAGGAACGAUCAGAAGGAGUUACAUGAGGAUCACCCAUGUGGGUGUAUUG [Eternabot (L1) Solution 37] (Eterna round: R97, puzzle: Exclusion 6) | – | 0.12 | 0.237 | – |
| GGUACUAACACGAGAGUGUUAGUACUAUAAGCUUGUGUUACAUGAGGAUCACCCAUGUCCUCAUAGGCUCGUCUUAG [Mat - Sensor v3 - Turn-off var 2 - D84] (puzzle: Sensor v3, turn-off variant 2) | 0.0348 | – | – | apparent KD of MS2 coat protein [1]: 0.0937 µM; apparent KD of MS2 coat protein [3]: 0.0919 µM |
| AAGAACGUGCAAGGAUAUCUCCACCAAACCGGCAGAGAAGGUGCACAUGAGGAUCACCCAUGUGACCUAAGGCUCUUAUGAGCC [Teismace] (Eterna round: R96, puzzle: Exclusion NG 1) | – | 0.0466 | 0.0185 | apparent KD of MS2 coat protein [4]: 0.0146 µM |
| GCCUCACUUGAGGAUCACCCAAGUCAGGAUAUCUACAGGCCGGCCAUACCGACCUGCAAGAGAAGGGACUCUAA [Aristi] (Eterna round: R97, puzzle: Exclusion 1) | – | 0.211 | 0.0314 | – |
| GAAAAGGGAGGAUAUACAAGAAGAAAAGAAAAGAAAAGAAAACAUGAGGAUCACCCAUGUAGAAGGCCCAAAAG [Default title] (puzzle: Exclusion 2) | 0.0187 | – | – | apparent KD of MS2 coat protein [1]: 0.0226 µM; apparent KD of MS2 coat protein [3]: 0.0238 µM |
| AUAACAAGCUUUUUUUUCGUCGUAUAUGACGCUCGAGUCACAUGAGGAUCACCCAUGUCUUCCUGUUUGAUUGUUGA [JR_SV3TOV2_Sub057] (puzzle: Sensor v3, turn-off variant 2) | 0.154 | – | – | apparent KD of MS2 coat protein [1]: 0.167 µM; apparent KD of MS2 coat protein [3]: 0.173 µM |
| CUAUGCAAAGUAAGGAUAUGCUUCCGGAAACGGAGGCAGAAGGUACAUGAGGAUCACCCAUGUUAAACGCAUAG [Explosion 4 - Jieux - Brourd's mod of Exclusion 4] (Eterna round: R97, puzzle: Brourd's mod of Exclusion 4) | – | 0.0168 | 0.0128 | – |
| ACUGUUUGAUACCUCUAAUACAUGAGGAUCACCCAUGUUAUCGAGGAUAUGCAUUAGAGUGGUUAGCAGAAGGCGAAGUAAUUG [JR_ExcNG3_Sub031] (Eterna round: R96, puzzle: Exclusion NG 3) | – | 0.017 | 0.0216 | apparent KD of MS2 coat protein [4]: 0.0142 µM |
| CUCUUGUCAGGAUAUCAACGCCAUCCACAUGGACGGCGAAAUGAGAAGGGACAUGAGGAUCACCCAUGUUAAAA [Xeveleqube] (puzzle: Exclusion 4) | 0.117 | – | – | apparent KD of MS2 coat protein [1]: 0.0273 µM; apparent KD of MS2 coat protein [3]: 0.139 µM |
| CUGCUCCGUGUAGGAUAUGCAUACUCCCAUUAUGCAGAAGGACAUGAGGAUCACCCAUGUAUGUUAUUAUCAUGUGUUGCGUGC [Design 12] (Eterna round: R96, puzzle: Exclusion NG 1) | – | – | – | apparent KD of MS2 coat protein [4]: 0.03 µM |
| GUGUACAGAGGAUAUGCACGAGGAGUUACGAAAGUAACUUCACAUGAGGAUCACCCAUGUAGAAGGCUGUACAC [Dot plot directed v5] (puzzle: Exclusion 2) | 0.0139 | – | – | – |
| AAAUAAUCAGGAUAUACAUGAGGAUCACCCAUGUACCUCUUGUACGAGGGCCGCCCGUGUAGAAGGGAUGACAA [Arralara] (puzzle: Exclusion 3) | 0.0401 | – | – | apparent KD of MS2 coat protein [1]: 0.0726 µM; apparent KD of MS2 coat protein [3]: 0.04 µM |
| GUCAGACGAGGAUAUAGAUUUAGAUACAUGAGGAUCACCCAUGUAUACAUGUAUUUAGAUUUAGAAGGCGUCUGAC [E5/14-A4] (Eterna round: R97, puzzle: Exclusion 5) | – | 0.492 | 1.36 | – |
| ACAAGCUUUUUGCUCGGGUACAUGAGGAUCACCCAUGUUUGUGUUUAUUGAGGUUGUGUUGUCGUGCGCUGCAGGUU [JR_SV3TOV1_Sub077] (puzzle: Sensor v3, turn-off variant 1) | 0.0387 | – | – | apparent KD of MS2 coat protein [1]: 0.0593 µM; apparent KD of MS2 coat protein [3]: 0.0665 µM |
| GCAGCAACUCUCACUAACUAAACAUGAGGAUCACCCAUGUCUCAGGAUAUGGUCUGGAUUACAGGCCAGAAGGGAGAAAGCUGC [Eli exng3 - 040] (Eterna round: R96, puzzle: Exclusion NG 3) | – | 0.00973 | 0.0131 | apparent KD of MS2 coat protein [4]: 0.0106 µM |
| GAUCUGACAGGAUAUACAUGAGGAUCACCCAUGUGCGAGCUAGCGAAAGCUAGCUUAGGUAGAAGGGUCAGAUC [Ex3 dot plot directed v3] (puzzle: Exclusion 3) | 0.0107 | – | – | – |
| AUUGUGUGAGGAUAUUAGUAGUAAAUAAAUAAAAUUAUUACUGAGAAGGCACAUGAGGAUCACCCAUGUUCCUU [Salish 062 v5] (Eterna round: R97, puzzle: Exclusion 4) | – | 0.131 | 0.0189 | – |
